Data taken from patent US20210087281A1 (AGOMAB THERAPEUTICS, published 2021).
Blank lines part the entries; values can stand above or below the binder they belong to.

Legend:
[1] = target: T1, native mouse MET on living cells (mouse, UniProt P16056 25-1379); test: cell-based or functional assay
[2] = target: T2, native human MET on living cells (human, UniProt P08581 25-1390); test: cell-based or functional assay
mouse MET ECD = target: T3, mouse MET ECD (mouse, UniProt P16056 25-931); test: ELISA, MET ECD in solid phase, mAb 0-20 nM
T3 construct: range 1-931; recombinant ECD made by the applicants; the stated range begins at residue 1; also called mMET; mMET ECD
Procedure: (§1) Production (by transient transfection of mammalian cells) and purification (by protein A affinity chromatography) of the resulting chimeric llama-human IgG1 molecules was outsourced to U-protein Express. Binding of chimeric mAbs to MET was determined by ELISA using hMET or mMET ECD in solid phase and increasing concentrations of antibodies (0-20 nM) in solution. […] Binding capacity (EMAX) varied from antibody to antibody, possibly due to partial epitope exposure in the immobilized antigen, but was similar in the human and mouse setting.

human MET ECD = target: T4, human MET ECD (human, UniProt P08581 25-932); test: ELISA, MET ECD in solid phase, mAb 0-20 nM
T4 construct: range 1-932; recombinant ECD made by the applicants; the stated range begins at residue 1, so it includes the signal peptide of the entry; also called hMET; hMET ECD
T4 sequence (P08581 25-932 limits assumed, form in doubt): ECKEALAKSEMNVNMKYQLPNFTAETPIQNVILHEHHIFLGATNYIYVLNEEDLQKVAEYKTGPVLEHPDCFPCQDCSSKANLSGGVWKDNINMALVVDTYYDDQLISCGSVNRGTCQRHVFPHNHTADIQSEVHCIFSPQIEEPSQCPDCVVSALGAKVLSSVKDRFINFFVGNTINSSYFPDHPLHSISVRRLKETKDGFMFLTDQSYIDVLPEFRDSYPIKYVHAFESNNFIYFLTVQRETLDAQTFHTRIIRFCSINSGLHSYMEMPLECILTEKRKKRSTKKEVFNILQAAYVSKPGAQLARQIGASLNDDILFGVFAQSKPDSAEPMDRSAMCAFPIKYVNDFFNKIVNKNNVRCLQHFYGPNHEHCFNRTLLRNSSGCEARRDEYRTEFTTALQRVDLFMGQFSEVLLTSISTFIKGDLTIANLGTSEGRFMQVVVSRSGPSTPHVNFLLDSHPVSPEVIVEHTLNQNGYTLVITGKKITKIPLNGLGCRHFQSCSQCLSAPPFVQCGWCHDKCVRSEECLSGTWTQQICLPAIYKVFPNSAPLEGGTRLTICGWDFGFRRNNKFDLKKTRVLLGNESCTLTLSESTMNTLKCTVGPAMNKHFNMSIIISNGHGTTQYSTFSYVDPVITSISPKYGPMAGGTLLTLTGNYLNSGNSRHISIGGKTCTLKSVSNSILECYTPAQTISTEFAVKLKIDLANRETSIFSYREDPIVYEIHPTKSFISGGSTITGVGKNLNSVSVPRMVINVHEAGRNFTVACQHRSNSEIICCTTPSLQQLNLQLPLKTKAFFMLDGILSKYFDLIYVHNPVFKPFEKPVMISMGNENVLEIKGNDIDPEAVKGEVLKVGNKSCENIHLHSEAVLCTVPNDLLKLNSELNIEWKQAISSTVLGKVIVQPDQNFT
Procedure: as §1

[3] = target: T5, human MET-Fc (R&D Systems) (human, UniProt P08581 25-932); test: competition ELISA, hMET-Fc in solid phase, competitor 0.3 nM biotinylated hHGF
T5 construct: extracellular domain; bought chimeric protein; also called hMET; not shown: Fc portion of human IgG1
T5 sequence (P08581 25-932): as the sequence (P08581 25-932 limits assumed, form in doubt) above
Procedure: (§2) To investigate along this line, we tested the competition between mAbs and HGF by ELISA. Recombinant human and mouse HGF (R&D Systems) were biotinylated at the N-terminus using NHS-LC-biotin (Thermo Scientific). MET-Fc protein, either human or mouse (R&D Systems), was immobilized in solid phase and then exposed to 0.3 nM biotinylated HGF, either human or mouse, in the presence of increasing concentrations of antibodies (0-120 nM).
(§3) A MET-Fc chimeric protein (either human or mouse) was immobilized in solid phase and exposed to a fixed concentration of biotinylated HGF (either human or mouse), in the presence of increasing concentrations of antibodies. […] Antibody-HGF competition is expressed as IC₅₀ (the concentration that achieves 50% competition) and IMAX (the maximum % competition reached at saturation).

[4] = target: T6, mouse MET-Fc (R&D Systems) (mouse, UniProt P16056 25-929, limits assumed); test: competition ELISA, mMET-Fc in solid phase, competitor 0.3 nM biotinylated mHGF
T6 construct: bought chimeric protein; also called mMET; not shown: Fc part
Procedure: as §2, §3

[5] = target: T1, native mouse MET on living cells; test: flow cytometry, MLP29 cells
Procedure: (§4) We also analysed whether chimeric anti-MET antibodies bound to native human and mouse MET in living cells. […] Antibody binding to cells was analysed by flow cytometry using phycoerythrin-conjugated anti-human IgG1 antibodies (eBioscience) and a CyAn ADP analyser (Beckman Coulter). As a positive control for human MET binding, we used a commercial mouse anti-human MET antibody (R&D Systems) and phycoerythrin-conjugated anti-mouse IgG1 antibodies (eBioscience).
(§5) As a positive control for mouse MET binding we used a commercial goat anti-mouse MET antibody (R&D Systems) and phycoerythrin-conjugated anti-goat IgG1 antibodies (eBioscience). […] Consistent with the data obtained in ELISA, maximal binding (EMAX) varied depending on antibody, but was similar in human and mouse cells.

[6] = target: T1, native mouse MET on living cells; test: cell-based or functional assay; remark: listed apart in the source
[7] = target: T2, native human MET on living cells; test: cell-based or functional assay; remark: listed apart in the source
[8] = target: T1, native mouse MET on living cells; test: cell-based or functional assay; remark: listed apart in the source
[9] = target: T2, native human MET on living cells; test: cell-based or functional assay; remark: listed apart in the source
[10] = target: T1, native mouse MET on living cells; test: cell-based or functional assay; remark: listed apart in the source
[11] = target: T2, native human MET on living cells; test: cell-based or functional assay; remark: listed apart in the source
[12] = target: T2, native human MET on living cells; test: flow cytometry, A549 cells
Procedure: as §4, §5

T2 sequence (P08581 25-1390): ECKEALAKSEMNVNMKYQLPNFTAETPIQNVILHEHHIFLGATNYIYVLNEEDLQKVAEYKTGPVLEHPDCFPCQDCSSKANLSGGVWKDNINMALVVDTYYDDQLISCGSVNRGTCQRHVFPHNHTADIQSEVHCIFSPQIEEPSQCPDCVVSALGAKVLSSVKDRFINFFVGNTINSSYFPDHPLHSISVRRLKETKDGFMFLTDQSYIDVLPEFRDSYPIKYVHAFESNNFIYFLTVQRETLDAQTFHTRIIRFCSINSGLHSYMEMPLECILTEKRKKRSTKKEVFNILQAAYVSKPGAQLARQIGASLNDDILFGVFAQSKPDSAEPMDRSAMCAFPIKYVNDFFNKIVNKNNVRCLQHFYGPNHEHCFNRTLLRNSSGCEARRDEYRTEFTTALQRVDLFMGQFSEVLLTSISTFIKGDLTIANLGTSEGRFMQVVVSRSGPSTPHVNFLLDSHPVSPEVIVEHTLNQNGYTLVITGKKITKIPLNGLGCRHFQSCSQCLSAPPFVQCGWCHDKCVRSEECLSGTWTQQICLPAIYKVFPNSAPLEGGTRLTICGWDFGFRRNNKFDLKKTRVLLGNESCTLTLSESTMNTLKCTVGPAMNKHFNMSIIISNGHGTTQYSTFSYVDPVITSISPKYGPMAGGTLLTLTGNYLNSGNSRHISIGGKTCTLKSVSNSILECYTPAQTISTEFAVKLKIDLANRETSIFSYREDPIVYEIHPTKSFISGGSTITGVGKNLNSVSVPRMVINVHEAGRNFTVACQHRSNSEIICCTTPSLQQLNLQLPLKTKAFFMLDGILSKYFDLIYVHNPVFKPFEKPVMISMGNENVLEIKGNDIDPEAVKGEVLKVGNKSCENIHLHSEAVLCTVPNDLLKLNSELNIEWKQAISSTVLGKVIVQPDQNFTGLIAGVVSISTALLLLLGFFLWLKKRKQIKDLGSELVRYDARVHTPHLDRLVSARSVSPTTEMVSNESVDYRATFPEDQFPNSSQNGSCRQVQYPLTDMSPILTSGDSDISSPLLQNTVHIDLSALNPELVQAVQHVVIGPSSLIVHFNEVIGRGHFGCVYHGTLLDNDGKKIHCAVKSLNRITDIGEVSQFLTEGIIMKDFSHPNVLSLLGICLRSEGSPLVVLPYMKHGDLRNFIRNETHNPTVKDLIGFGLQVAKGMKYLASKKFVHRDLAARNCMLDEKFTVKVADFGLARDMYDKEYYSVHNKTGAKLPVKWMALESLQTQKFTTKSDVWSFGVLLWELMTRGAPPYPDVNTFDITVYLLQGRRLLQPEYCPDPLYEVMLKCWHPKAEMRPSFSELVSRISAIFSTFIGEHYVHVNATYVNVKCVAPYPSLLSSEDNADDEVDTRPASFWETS

EC50 (mouse MET ECD): 0.103 nM
EMAX (OD450) (mouse MET ECD): 2.78 AU
EC50 (human MET ECD): 0.128 nM
EMAX (OD450) (human MET ECD): 2.62 AU
IC50 [3]: 1.47 nM
IMAX [3]: 69.4%
IC50 [4]: 1.56 nM
IMAX [4]: 62.5%
EC50 [5]: 2.37 nM
EMAX [5]: 115 % relative to control
branches per spheroid, MLP29 cells, 0.5 nM [6]: 14.7 branches
branches per spheroid, MLP29 cells, 2.5 nM [6]: 18.7 branches
branches per spheroid, MLP29 cells, 12.5 nM [6]: 24.7 branches
branches per spheroid, LOC cells, 0.5 nM [7]: 6.7 branches
branches per spheroid, LOC cells, 2.5 nM [7]: 13.3 branches
branches per spheroid, LOC cells, 12.5 nM [7]: 16.3 branches
phospho-MET ELISA EC50, MLP29 cells [8]: 1.19 nM
phospho-MET ELISA EMAX (% HGF activity), MLP29 cells [8]: 71.5%
phospho-MET ELISA EC50, A549 cells [9]: 1.86 nM
phospho-MET ELISA EMAX (% HGF activity), A549 cells [9]: 62.3%
scatter score 0-4, MLP29, 0.001 nM [10]: 0 score
scatter score 0-4, MLP29, 0.004 nM [10]: 0 score
scatter score 0-4, MLP29, 0.012 nM [10]: 0 score
scatter score 0-4, MLP29, 0.037 nM [10]: 0 score
scatter score 0-4, MLP29, 0.111 nM [10]: 0 score
scatter score 0-4, MLP29, 0.333 nM [10]: 0 score
scatter score 0-4, MLP29, 1.000 nM [10]: 1 score
scatter score 0-4, MLP29, 3.000 nM [10]: 2 score
scatter score 0-4, MLP29, 9.000 nM [10]: 3 score
scatter score 0-4, HPAF-II, 0.001 nM [11]: 0 score
scatter score 0-4, HPAF-II, 0.004 nM [11]: 0 score
scatter score 0-4, HPAF-II, 0.012 nM [11]: 0 score
scatter score 0-4, HPAF-II, 0.037 nM [11]: 0 score
scatter score 0-4, HPAF-II, 0.111 nM [11]: 0 score
scatter score 0-4, HPAF-II, 0.333 nM [11]: 0 score
scatter score 0-4, HPAF-II, 1.000 nM [11]: 1 score
scatter score 0-4, HPAF-II, 3.000 nM [11]: 2 score
scatter score 0-4, HPAF-II, 9.000 nM [11]: 3 score
EC50 [12]: 2.3 nM
EMAX [12]: 121 % relative to control
B1: 76G7 chimeric llama-human IgG1 mAb (antibody, V domains shown)
VH: QVQLVESGGNLVQPGGSLRLSCAASGFTFSNYYMSWVRQAPGKGLEWVSDIYSDGSTTWYSDSVKGRFTISRDNAKNTLSLQMNSLKSEDTAVYYCARVKIYPGGYDAWGQGTQVTVSS
VL: QAGLTQPPSVSGSPGKTVTISCAGNSSDVGYGNYVSWYQQFPGMAPKLLIYLVNKRASGITDRFSGSKSGNTASLTISGLQSEDEADYYCASYTGSNNIVFGGGTHLTVL
notes: llama VH on human IgG1 CH1-CH2-CH3, llama VL on human lambda CL
protection from staurosporine, viability EC50, MLP29 cells [1]: 30.1 nM
protection from staurosporine, viability EMAX, MLP29 cells [1]: 50.2%
protection from staurosporine, viability EC50, MCF10A cells [2]: 25.4 nM
protection from staurosporine, viability EMAX, MCF10A cells [2]: 51.9%

branches per spheroid, MLP29 cells, 0.5 nM [6]: 32.3 branches
branches per spheroid, MLP29 cells, 2.5 nM [6]: 43.7 branches
branches per spheroid, MLP29 cells, 12.5 nM [6]: 36 branches
phospho-MET ELISA EC50, MLP29 cells [8]: 0.23 nM
phospho-MET ELISA EMAX (% HGF activity), MLP29 cells [8]: 100%
scatter score 0-4, MLP29, 0.001 nM [10]: 0 score
scatter score 0-4, MLP29, 0.004 nM [10]: 1 score
scatter score 0-4, MLP29, 0.012 nM [10]: 2 score
scatter score 0-4, MLP29, 0.037 nM [10]: 3 score
scatter score 0-4, MLP29, 0.111 nM [10]: 4 score
scatter score 0-4, MLP29, 0.333 nM [10]: 4 score
scatter score 0-4, MLP29, 1.000 nM [10]: 4 score
scatter score 0-4, MLP29, 3.000 nM [10]: 4 score
scatter score 0-4, MLP29, 9.000 nM [10]: 4 score
B2: recombinant mouse HGF (R&D Systems) (ligand, UniProt Q08048 33-728, looked up)
chain: QKKRRNTLHEFKKSAKTTLTKEDPLLKIKTKKVNSADECANRCIRNRGFTFTCKAFVFDKSRKRCYWYPFNSMSSGVKKGFGHEFDLYENKDYIRNCIIGKGGSYKGTVSITKSGIKCQPWNSMIPHEHSFLPSSYRGKDLQENYCRNPRGEEGGPWCFTSNPEVRYEVCDIPQCSEVECMTCNGESYRGPMDHTESGKTCQRWDQQTPHRHKFLPERYPDKGFDDNYCRNPDGKPRPWCYTLDPDTPWEYCAIKTCAHSAVNETDVPMETTECIQGQGEGYRGTSNTIWNGIPCQRWDSQYPHKHDITPENFKCKDLRENYCRNPDGAESPWCFTTDPNIRVGYCSQIPKCDVSSGQDCYRGNGKNYMGNLSKTRSGLTCSMWDKNMEDLHRHIFWEPDASKLNKNYCRNPDDDAHGPWCYTGNPLIPWDYCPISRCEGDTTPTIVNLDHPVISCAKTKQLRVVNGIPTQTTVGWMVSLKYRNKHICGGSLIKESWVLTARQCFPARNKDLKDYEAWLGIHDVHERGEEKRKQILNISQLVYGPEGSDLVLLKLARPAILDNFVSTIDLPSYGCTIPEKTTCSIYGWGYTGLINADGLLRVAHLYIMGNEKCSQHHQGKVTLNESELCAGAEKIGSGPCEGDYGGPLICEQHKMRMVLGVIVPGRGCAIPNRPGIFVRVAYYAKWIHKVILTYKL
modifications: biotinylated at the N-terminus using NHS-LC-biotin (in the competition ELISAs only)
protection from staurosporine, viability EC50, MLP29 cells [1]: 5.35 nM
protection from staurosporine, viability EMAX, MLP29 cells [1]: 58.6%

EC50 (mouse MET ECD): 0.127 nM
EMAX (OD450) (mouse MET ECD): 2.97 AU
EC50 (human MET ECD): 0.106 nM
EMAX (OD450) (human MET ECD): 3.08 AU
IC50 [3]: 3.87 nM
IMAX [3]: 51.4%
IC50 [4]: 4.05 nM
IMAX [4]: 50.7%
EC50 [5]: 2.54 nM
EMAX [5]: 121 % relative to control
branches per spheroid, MLP29 cells, 0.5 nM [6]: 14 branches
branches per spheroid, MLP29 cells, 2.5 nM [6]: 14.7 branches
branches per spheroid, MLP29 cells, 12.5 nM [6]: 22.7 branches
branches per spheroid, LOC cells, 0.5 nM [7]: 7 branches
branches per spheroid, LOC cells, 2.5 nM [7]: 15.3 branches
branches per spheroid, LOC cells, 12.5 nM [7]: 16 branches
phospho-MET ELISA EC50, MLP29 cells [8]: 2.01 nM
phospho-MET ELISA EMAX (% HGF activity), MLP29 cells [8]: 75.4%
phospho-MET ELISA EC50, A549 cells [9]: 2.48 nM
phospho-MET ELISA EMAX (% HGF activity), A549 cells [9]: 70.6%
scatter score 0-4, MLP29, 0.001 nM [10]: 0 score
scatter score 0-4, MLP29, 0.004 nM [10]: 0 score
scatter score 0-4, MLP29, 0.012 nM [10]: 0 score
scatter score 0-4, MLP29, 0.037 nM [10]: 0 score
scatter score 0-4, MLP29, 0.111 nM [10]: 0 score
scatter score 0-4, MLP29, 0.333 nM [10]: 1 score
scatter score 0-4, MLP29, 1.000 nM [10]: 2 score
scatter score 0-4, MLP29, 3.000 nM [10]: 2 score
scatter score 0-4, MLP29, 9.000 nM [10]: 3 score
scatter score 0-4, HPAF-II, 0.001 nM [11]: 0 score
scatter score 0-4, HPAF-II, 0.004 nM [11]: 0 score
scatter score 0-4, HPAF-II, 0.012 nM [11]: 0 score
scatter score 0-4, HPAF-II, 0.037 nM [11]: 0 score
scatter score 0-4, HPAF-II, 0.111 nM [11]: 0 score
scatter score 0-4, HPAF-II, 0.333 nM [11]: 1 score
scatter score 0-4, HPAF-II, 1.000 nM [11]: 2 score
scatter score 0-4, HPAF-II, 3.000 nM [11]: 2 score
scatter score 0-4, HPAF-II, 9.000 nM [11]: 3 score
EC50 [12]: 2.29 nM
EMAX [12]: 110 % relative to control
B3: 71G12 chimeric llama-human IgG1 mAb (antibody, V domains shown)
VH: QVQLQESGGDLVQPGGSLRVSCVVSGFTFSRYYMSWVRQAPGKGLEWVSSIDSYGYSTYYTDSVKGRFTISRDNAKNTLYLQMNSLKPEDTALYYCARAKTTWSYDYWGQGTQVTVSS
VL: EIVLTQSPSSVTASVGGKVTINCKSSQSVFIASNQKTYLNWYQQRPGQSPRLVISYASTRESGIPDRFSGSGSTTDFTLTISSVQPEDAAVYYCQQAYSHPTFGQGTKVELK
notes: llama VH on human IgG1 CH1-CH2-CH3, llama VL on human kappa CL
protection from staurosporine, viability EC50, MLP29 cells [1]: > 32 nM
protection from staurosporine, viability EMAX, MLP29 cells [1]: 39.7%
protection from staurosporine, viability EC50, MCF10A cells [2]: > 32 nM
protection from staurosporine, viability EMAX, MCF10A cells [2]: 39.4%
